Assay results from patent publication US20090075314A1 (DUKE UNIVERSITY, published 2009).
No end group written: not given here.

T1: human gastrin/CCK-B receptor (human, UniProt P32239 1-447)
T1 construct: Permanently expressed with arrestin-GFP in HEK-293 cells (Clone A); also called gastrin receptor; homo sapiens cholecystokinin B receptor
T1 sequence: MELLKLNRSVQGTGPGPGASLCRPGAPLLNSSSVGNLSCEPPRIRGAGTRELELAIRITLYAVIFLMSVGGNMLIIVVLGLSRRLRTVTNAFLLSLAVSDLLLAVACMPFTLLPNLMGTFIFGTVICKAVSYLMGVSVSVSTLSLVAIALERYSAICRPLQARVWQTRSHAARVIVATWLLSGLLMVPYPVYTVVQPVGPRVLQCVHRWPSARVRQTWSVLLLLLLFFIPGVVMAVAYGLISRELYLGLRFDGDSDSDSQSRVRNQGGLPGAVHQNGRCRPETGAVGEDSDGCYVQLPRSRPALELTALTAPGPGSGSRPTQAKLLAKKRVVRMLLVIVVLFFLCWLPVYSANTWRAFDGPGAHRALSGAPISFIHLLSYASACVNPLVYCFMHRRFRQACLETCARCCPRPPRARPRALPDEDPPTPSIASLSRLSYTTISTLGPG


Key:
[1] = biological target: T1, human gastrin/CCK-B receptor; experiment: cell-based or functional assay
[2] = biological target: T1, human gastrin/CCK-B receptor; experiment: competitive displacement of [3H]CCK-8 from Clone A by hG17
Description: (§1) Membrane Preparation/Binding—All steps were performed at 4° C. Membrane binding was performed in triplicate as described in Shetzline et al., J. Biol. Chem. 273:[…] (1998). Membrane fractions were assayed immediately or stored at −80° C. […] Data were analyzed using Graph Pad-Prism.
(§2) Data are presented as mean±SEM.

[3] = biological target: T1, human gastrin/CCK-B receptor; experiment: derived from competitive displacement of [3H]CCK-8 from Clone A by hG17
Description: as §1, §2

| arrestin-GFP translocation (TI/TF, two hours at 37° C.) [1] | EC50 [2] | Kd [3] | Molecule |
| --- | --- | --- | --- |
| 2.4 nM | – | – | pentagastrin (peptide) |
| – | 28 nM | 17 nM | QGPWLEEEEEAYGWMDF-NH2 (peptide, UniProt P01350 76-92, looked up, domain: gastrin-17; also called hGl 7) [synthetic human gastrin-17 peptide (hG17)] |
